Measurements: patent US7998940B2, “Aptamers to von Willebrand factor and their use as thrombotic disease therapeutics” (Archemix Corp., priority 2004, dated 2011)
Numbering of substitutions follows the chain as printed. Where two headings read alike, the source gives them in different places. Oligonucleotides are written 5' to 3', each unit as a sugar letter and its base; * is a phosphorothioate linkage, no mark a phosphodiester; rarer units and linkages stand in square brackets, end groups in braces. Plain capitals give the bases only. r = 2'-OH (RNA); f = 2'-fluoro

B1: AMX198.C6: rRfY aptamer clone (nucleic acid)
chain: rGrGrArGfCrGfCrAfCfUfCrArGfCfCrAfCrGrGfUrGrGfUfCrArGfUfCrArGfUrGrAfUrAfUrGrAfUfUrArArGfUfUfCrArGfCfUrGfUrGrGfCfUrGfUfUfUfCrGrAfCfCfUfCfUfCfUrGfCfUrArGfC
B2: AMX198.A10: rRfY aptamer clone (nucleic acid)
chain: rGrGrArGfCrGfCrAfCfUfCrArGfCfCrAfCfCrArGfUfUrAfUrGfCfUrGrGfCfUfUfUrGrGfUfCfUfUfUrGrAfCfUrGfUfCfUrGrArGfUrGfUfUfCrGfUfUfUfCrGrAfCfCfUfCfUfCfUrGfCfUrArGfC
B3: AMX198.E11: rRfY aptamer clone (nucleic acid)
chain: rGrGrArGfCrGfCrAfCfUfCrArGfCfCrAfCrGrGfUrArAfCrAfUfUrGfUfUfUfCfCrGrGfCrGrAfUfUfCfUfUfUrGrArAfCrGfCfCrGfUfCrGfUrGrGfUfUfUfCrGrAfCfCfUfCfUfCfUrGfCfUrArGfC
B4: AMX200.C11: DNA SELEX 1 aptamer clone (nucleic acid)
DNA: CTACCTACGATCTGACTAGCGGAATGAGAGTGCTGATGGATTGCTCAGGTCTGCTGGCTGCTTACTCTCATGTAGTTCC
modifications: DNA, backbone not given here
notes: DNA SELEX 1 aptamer clone
B5: AMX200.F11: DNA SELEX 1 aptamer clone (nucleic acid)
DNA: B4 DNA with A29G, G30A, A36G
modifications: DNA, backbone not given here
notes: DNA SELEX 1 aptamer clone
B6: AMX199.F7: DNA SELEX 1 aptamer clone (nucleic acid)
DNA: B4 DNA with A36G
modifications: DNA, backbone not given here
notes: DNA SELEX 1 aptamer clone
B7: AMX199.B7: DNA SELEX 1 aptamer clone (nucleic acid)
DNA: B4 DNA with A23G, A36G
modifications: DNA, backbone not given here
notes: DNA SELEX 1 aptamer clone
B8: AMX237.E10: DNA SELEX 2 aptamer clone (nucleic acid)
DNA: B4 DNA with G30A, A36G
modifications: DNA, backbone and methylation of C not given here
notes: DNA SELEX 2 aptamer clone
B9: AMX199.G10: DNA SELEX 1 aptamer clone (nucleic acid)
DNA: B4 DNA with G30A, C33T, A36G
modifications: DNA, backbone not given here
notes: DNA SELEX 1 aptamer clone
B10: AMX200.D3: DNA SELEX 1 aptamer clone (nucleic acid)
DNA: B4 DNA with G22C, A29G, G30A
modifications: DNA, backbone not given here
notes: DNA SELEX 1 aptamer clone
B11: AMX199.C4: DNA SELEX 1 aptamer clone (nucleic acid)
DNA: B4 DNA with A29G, G30A, T45A
modifications: DNA, backbone not given here
notes: DNA SELEX 1 aptamer clone
B12: AMX199.C2: DNA SELEX 1 aptamer clone (nucleic acid)
DNA: B4 DNA with G30A, A36G, T45C
modifications: DNA, backbone not given here
notes: DNA SELEX 1 aptamer clone
B13: AMX198.C10: rRfY aptamer clone (nucleic acid)
chain: rGrGrArGfCrGfCrAfCfUfCrArGfCfCrAfCfUrGrGfUfCfCfUfUrArGfCfUrArGfUfUrGfUrAfCfUrArGfCrGrAfCrGfCrGfUfUfCrArGrGfUrGrGfUfUfUfCrGrAfCfCfUfCfUfCfUrGfCfUrArGfC
B14: AMX236.B8: DNA SELEX 2 aptamer clone (nucleic acid)
chain: CTACCTACGATCTGACTAGCTTGGTAGCGACTCTGTGGAGCTGCGGTCTGGTCGACGTCAGCTTACTCTCATGTAGTTCC
modifications: DNA, backbone not given here
notes: DNA SELEX 2 aptamer clone
B15: AMX201.G9: rRfY aptamer clone (nucleic acid)
chain: rGrGrArGfCrGfCrAfCfUfCrArGfCfCrAfCfUrArAfCrGrGfCfUrGrAfUfCfUfCrArGrGrAfCfUrArArAfUrArGfUfCrArAfCrArArGrGrAfUrGfCrGfUfUfUfCrGrAfCfCfUfCfUfCfUrGfCfUrArGfC
B16: AMX201.H1: rRfY aptamer clone (nucleic acid)
chain: rGrGrArGfCrGfCrAfCfUfCrArGfCfCrAfCfUfUfUrAfCrGrGfUrGrArArArGfUfCfUfCfUfCrGrGrGrGfUfUfCfCrGrArGfUfUrAfCrGrGfUrGfCrGfUfUfUfCrGrAfCfCfUfCfUfCfUrGfCfUrArGfC
B17: AMX198.E5: rRfY aptamer clone (nucleic acid)
chain: rGrGrArGfCrGfCrAfCfUfCrArGfCfCrAfCfUfUfCrGrAfCfUfUfUfCrAfUrGfUfCfUrGrArArGfUfCfCfCfUrGfCrArGfUrGfCrGrArGrArGrAfCrGfUfUfUfCrGrAfCfCfUfCfUfCfUrGfCfUrArGfC

How the values were obtained:
[1] = biological target: T1, human vWF A1 domain (SEQ ID NO 5) (Homo sapiens, UniProt P04275, T1381A); test: dot blot KD determination, human vWF A1 domain; conditions: for Human vWF A1 domain KD: DNA 1 minimers, 10 nM protein
T1 sequence (P04275 with tags, fused parts or gaps T1381A): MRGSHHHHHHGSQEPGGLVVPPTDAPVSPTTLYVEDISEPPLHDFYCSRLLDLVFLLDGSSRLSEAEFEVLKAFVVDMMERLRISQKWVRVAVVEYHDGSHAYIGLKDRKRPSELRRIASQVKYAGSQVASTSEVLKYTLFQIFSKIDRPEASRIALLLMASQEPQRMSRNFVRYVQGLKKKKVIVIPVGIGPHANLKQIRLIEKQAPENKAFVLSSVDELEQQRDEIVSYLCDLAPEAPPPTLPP
Method: For KD determination, aptamers transcripts were purified on 10% denaturing polyacrylamide gels, 5′ end labeled with γ-^32P ATP.
For KD determination, aptamers were purified on denaturing polyacrylamide gels and 5′-end labeled with γ-^32P ATP. A 6 point protein titration of human vWF A1 domain (SEQ ID NO 5) was used in the dot blot assay (333 nM, 100 nM, 33 nM, 10 nM, 3 nM, 0 nM) in 1×DPBS plus 0.1 mg/mL BSA at room temperature for 30 minutes. KD values were calculated by fitting the equation y=(max/(1+K/protein))+yint using KaleidaGraph (KaleidaGraph v. 3.51, Synergy Software).
KD values were calculated by fitting the equation y=(max/(1+K/protein))+yint using KaleidaGraph (KaleidaGraph v. 3.51, Synergy Software).
All minimer sequences were transcribed, gel-purified on 15% denaturing polyacrylamide gels, 5-^32 end-labeled with γ^32P ATP, and then desalted using two Centri-Spin 10 columns (Princeton Separations Cat. #CS-101, Adelphia, N.J.). For KD determination, minimer transcripts were tested for direct binding to full length human vWF (SEQ ID NO 7), human vWF A1 domain (SEQ ID NO 5), and rabbit vWF A1 domain (SEQ ID NO 6) using an 8 point protein titration from 0-300 nM (3 fold dilutions) in 1× Dulbecco's PBS containing 0.1 mg/mL BSA (in a final volume of 50 uL) for 30 minutes at room temperature and then applied to a nitrocellulose and nylon filter sandwich in a dot blot apparatus (Schleicher and Schuell, Keene, N.H.). KD values were calculated by fitting the equation y=(max/(1+K/protein))+yint using KaleidaGraph (KaleidaGraph v. 3.51, Synergy Software).
All minimer DNA sequences were chemically synthesized, 5-^32P end-labeled with γ-^32P ATP, and then desalted using two Centri-Spin 10 columns (Princeton Separations, Cat. #CS-101, Adelphia, N.J.). […] KD values were calculated by fitting the equation y=(max/(1+K/protein))+yint using KaleidaGraph (KaleidaGraph v. 3.51, Synergy Software).

[2] = biological target: T1, human vWF A1 domain (SEQ ID NO 5); test: 3-point dot blot screen, human vWF A1 domain; type: binding; conditions: 100 nM human vWF A1 domain
Summary of the method: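 Values are ratios of aptamer fraction retained on nitrocellulose with 100 nM vWF A1 domain (human or rabbit) versus a no-protein control. Unique clones from rounds 9 and 12 pools were transcribed, desalted and 5'-32P labeled before this three-point dot blot screen.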

[3] = test system: rabbit vWF A1 domain (SEQ ID NO 6); test: 3-point dot blot screen, rabbit vWF A1 domain; type: binding; conditions: for Screen- Rabbit/No Protein: 100 nM rabbit vWF A1 domain, ratio of fraction bound with target to without; for Screen Rabbit/No Protein: 3-point dot blot screen, 20 nM rabbit vWF A1 domain, ratio of fraction of aptamer bound with target protein to fraction bound without protein
rabbit vWF A1 domain (SEQ ID NO 6), sequence (as listed by the source): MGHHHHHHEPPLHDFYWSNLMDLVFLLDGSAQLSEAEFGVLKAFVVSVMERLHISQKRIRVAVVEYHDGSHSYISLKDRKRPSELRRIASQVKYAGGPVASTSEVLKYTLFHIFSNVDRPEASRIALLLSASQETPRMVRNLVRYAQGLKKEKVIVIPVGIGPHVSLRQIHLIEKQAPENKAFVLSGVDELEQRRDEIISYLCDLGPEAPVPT
Summary of the method: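 Rabbit vWF A1 domain binding was screened by dot blot using three conditions: no target protein, human vWF, and rabbit vWF A1 domain at 100 nM (20 nM in the screen run twice). Radiolabeled aptamer bound to nitrocellulose was quantified, and results are expressed as the ratio of bound fraction with protein to bound fraction without protein.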

full length human vWF = test: 3-point dot blot screen, full length human vWF; type: binding; conditions: 20 nM full length human vWF, ratio of fraction of aptamer bound with target protein to fraction bound without protein
Summary of the method: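 Unique aptamer clones tested twice by nitrocellulose dot blot with no protein, 20 nM full-length human vWF or 20 nM rabbit vWF A1 domain. Value is fraction of aptamer bound with target divided by fraction bound without protein.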

[4] = test system: full length human vWF binding to lyophilized platelets; test: Full length human von Willebrand Factor platelet binding assay (FACS); type: cell-based; conditions: 5 nM full length human vWF, lyophilized platelets, botrocetin; both bounds in nM
Method: The amount of vWF bound to fixed platelets can be measured with an antibody to vWF. The fluorescence signal from bound antibody incubated with a fluorescein conjugated secondary antibody is then detected and quantified by flow cytometry. The ability of an aptamer of the invention to block vWF binding to platelets is correlated with a reduction in fluorescence signal.
Aptamer potency to block human vWF binding to lyophilized platelets was assessed by flow cytometric analysis. Titrations of aptamers (0 nM, 0.1 nM to 1000 nM) were pre-incubated briefly with 5 nM of full length human vWF in FACS buffer (PBS plus 0.5% bovine serum albumin) at room temperature in a volume of 50 uL. Another 50 uL containing 5 uL of lyophilized platelets plus 1 uL of 0.1 U/uL of botrocetin in FACS buffer was added to aptamer/vWF. This reaction was allowed to proceed for 15 minutes at 37 degrees C. after which 200 uL of FACS buffer was added. Platelets were collected by a 6 minute spin at 1470 RCF and the supernatant was discarded. The pellets were resuspended in 100 uL of FACS buffer containing a 1:100 dilution of anti-vWF antibody and were incubated at room temperature for 30 minutes. After dilution with 200 uL of FACS buffer, the platelets were spun at 1470 RCF for 6 minutes and the supernatant was discarded. The pellets were resuspended in a 1:100 solution of anti-IgG2a-FITC antibody and were incubated in the dark for 30 minutes at room temperature. The entire 100 uL was diluted into 200 uL of FACS buffer and analyzed immediately by flow cytometric analysis in the FACSCAN. Artifactual data from contaminating debris was eliminated from the analysis by drawing a gate around the population of single and aggregated platelets. Mean fluorescent intensity (“MFI”) readings were quantified for each sample analyzed by flow cytometry. Background MFI was subtracted from all data points. Percent inhibition was reported by calculating the percent value of binding of full length human vWF to platelets in the presence of aptamer at a given concentration relative to binding in the absence of any aptamer (see FIG. 7). IC50 values were determined by fitting the percent inhibition of vWF binding to platelets as a function of aptamer concentration to the equation: % inhibition=% inhibitionmax/(1+IC50/aptamer conc.)

[5] = rRfY aptamers, ratio of fraction bound with target to fraction bound without target
[6] = read-out: human A1 KD, rRfY aptamers, 8 point titration of human vWF A1 domain
[7] = DNA SELEX 1 aptamers, ratio of fraction bound with target to without
[8] = read-out: Human A1 KD, DNA SELEX 1 aptamers, competition dot blot, 100 nM protein, cold competitor titration

Row | Molecule | Screen- Human/No Protein [2, 5] | Screen- Rabbit/No Protein ([3]; rRfY aptamers) | Kd [1, 6] [nM] | Screen- Human/No Protein [2, 7] | Screen- Rabbit/No Protein ([3]; DNA SELEX 1 aptamers) | Kd [1, 8] [nM] | further results
1 | GATCTGACTAGCGCAATGAGGATGCdTGATGGATTGCTCAGGTC (GATCTGACTAGCGCAATGAGGATGCDTGATGGATTGCTCAGGTC; DNA, backbone and the base at N not given here) [SEQ ID NO 207] | – | – | – | – | – | – | Human vWF A1 domain KD ([1]; competition dot blot): No binding
2 | CGATCTGACTAGCGGAATGAGAATGCTGGTGGATCG (DNA, backbone not given here) [SEQ ID NO 206] | – | – | – | – | – | – | Human vWF A1 domain KD ([1]; competition dot blot): No binding
3 | B1 | 3.03 | 4.62 | 249 | – | – | – | –
4 | B2 | 1.26 | 5.74 | 1860 | – | – | – | –
5 | B3 | 1.03 | 2.37 | 1060 | – | – | – | –
6 | B4 | – | – | – | 6.00 | 3.64 | 26 | –
7 | B5 | – | – | – | 3.83 | 3.25 | 34 | –
8 | B6 | – | – | – | 5.47 | 5.00 | 22 | –
9 | B7 | – | – | – | 4.08 | 3.65 | 29 | –
10 | B8 | – | – | – | – | – | – | Screen Rabbit/No Protein [3]: 6.04; Screen- Human/No Protein (full length human vWF): 1.12; Inhibition of full length hVWF binding in FACS assay, IC50 range [4]: no activity
11 | B9 | – | – | – | 4.97 | 2.66 | 22 | –
12 | B10 | – | – | – | 2.68 | 2.41 | 36 | –
13 | B11 | – | – | – | 3.60 | 2.85 | 34 | –
14 | B12 | – | – | – | 5.09 | 4.61 | 17 | –
15 | B13 | 1.40 | 3.39 | 555 | – | – | – | –
16 | B14 | – | – | – | – | – | – | Screen Rabbit/No Protein [3]: 1.88; Screen- Human/No Protein (full length human vWF): 1.66
17 | B15 | 2.06 | 2.11 | 182 | – | – | – | –
18 | B16 | 2.61 | 2.46 | 189 | – | – | – | –
19 | B17 | 1.60 | 1.56 | 172 | – | – | – | –
